Patent US20110014125

Tests used:
[1] = system: Fe/Fe3O4 nanoparticle-TCPP assemblies featuring the urokinase cleavage sequence
[2] = system: T1, oligopeptide CGGGSGRSAGGGC (SEQ ID NO: 35) linking two gold nanoparticles (Au-Au nanoparticle assembly)
T1 sequence: CGGGSGRSAGGGC

[3] = system: T2, oligopeptide CGGGSGRSAGGGC (SEQ ID NO: 35) tethering Zn-TCPP and TCPP porphyrins to a stealth-protected Fe/Fe3O4 nanoparticle
T2 sequence: CGGGSGRSAGGGC

[4] = system: T3, oligopeptide SRSRSRSRSRSGRSAGGGC (SEQ ID NO: 18) as spacer between a pyrene fluorophore and a coumarin acceptor
T3 sequence: SRSRSRSRSRSGRSAGGGC

## urokinase
[1]
  cleavage rate (rate constant k from TCPP luminescence at 656 nm vs. time): the cleavage rate increases by 3-5 times per order of magnitude of increase in urokinase concentration
[2]
  maximum of the gold plasmon absorption (UV/Vis absorption, after 180 seconds with urokinase): shift from 523 nm to 517 nm within 180 seconds
  maximum of the gold plasmon absorption (UV/Vis absorption, before cleavage): shift from 523 nm to 517 nm within 180 seconds
[3]
  fluorescence band at 607 nm over 0-6 minutes: distinct decrease of the fluorescence band at λ1=607 nm
[4]
  coumarin emission (FRET from pyrene, excitation 280 nm) over 0-15 minutes: The coumarin emission decreases with time
